Laboratory results reported in patent US20220144960A1 (NANJING LEGEND BIOTECH, published 2022).
Changes are numbered by the printed parent chain. Values belong to the binder of their own block, whether it stands above or below them.

Assays:
rhesus CD30 ECD = biological target: T1, rhesus CD30 ECD (rhesus, UniProt P28908 19-379 (human entry)); assay: ELISA on rhesus CD30 ECD protein; member of the group by paragraph 437
T1 construct: Produced in house; also called recombinant rhesus CD30; rhesus CD30 protein
T1 chain: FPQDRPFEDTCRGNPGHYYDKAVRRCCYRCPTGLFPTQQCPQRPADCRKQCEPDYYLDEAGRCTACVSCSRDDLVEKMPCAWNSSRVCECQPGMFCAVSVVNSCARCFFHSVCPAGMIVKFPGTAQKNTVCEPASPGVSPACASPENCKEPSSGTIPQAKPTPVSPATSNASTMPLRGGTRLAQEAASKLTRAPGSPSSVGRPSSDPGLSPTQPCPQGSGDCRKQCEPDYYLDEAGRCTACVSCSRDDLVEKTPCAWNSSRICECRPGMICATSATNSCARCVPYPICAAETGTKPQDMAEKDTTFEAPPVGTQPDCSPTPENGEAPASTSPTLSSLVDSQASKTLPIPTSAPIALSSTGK

[1] = biological target: T2, human CD30 CRD2 (R66-E107) Fc fusion protein with human IgG1 Fc fragment at the C terminus (human); assay: SPR, captured Fab, Fc-fused CRD protein as analyte
T2 construct: also called CRD2 construct
Description: (§1) Some of these unique binders were subjected to for further characterization by surface plasmon resonance (SPR) on a BIAcore T200 instrument (GE Healthcare). The experiment was carried out as follows. The crude sdAb/Fab proteins were captured through an affinity tag (6×Histidine tag) onto the sensorchip. High-concentration (100.0 nM) of human CD30 (R&D systems, Cat. #6126-CD) flowed over the sensorchip surface, and were allowed to bind the antibody fragments for 300 s followed by injection of the running buffer to allow dissociation of the complex. On-rate ([…] and off-rate (kd) were roughly calculated based on one association and dissociation curve, and were used to estimate the equilibrium dissociation constant (KD). 5F11 scFv (SEQ ID NO:216, prepared according to WO2017066122) was used as a positive control. Data were summarized in Table 3 below. The first 10 antibodies in Table 3 were sdAbs with amino acid sequence ID numbers summarized in Table 1, the last antibody was 5F11 scFv, and the remainings were human Fabs with CDR and scFv amino acid sequence ID numbers in Table 2.
(§2) Cysteine rich domains (CRDs) of human CD30 and the flanking residues, i.e., CRD1 (F19-Q68, SEQ ID NO: 3), CRD2 (R66-E107, SEQ ID NO: 4), CRD3 (E107-5153, SEQ ID NO: 5), CRD4 (E150-Q243, SEQ ID NO: 6), CRD5 (R241-E282, SEQ ID NO: 7) and CRD6 (E282-K379, SEQ ID NO: 8), were produced as Fc fusion proteins with human IgG1 Fc fragment (SEQ ID NO: 217) at the C terminus and used for epitope determination using SPR following the protocol similar to what was described above, only the analytes used were human IgG1 Fc-fused CRD proteins.

[2] = biological target: T3, human CD30 CRD5 (R241-E282) Fc fusion protein with human IgG1 Fc fragment at the C terminus (human); assay: SPR, captured Fab, Fc-fused CRD protein as analyte
T3 construct: also called CRD5 construct
Description: as §1, §2

[3] = biological target: T4, human CD30 CRD6 (E282-K379) Fc fusion protein with human IgG1 Fc fragment at the C terminus (human); assay: SPR, captured Fab, Fc-fused CRD protein as analyte
T4 construct: also called CRD6 construct
T4 sequence (chain, as listed by the source limits assumed): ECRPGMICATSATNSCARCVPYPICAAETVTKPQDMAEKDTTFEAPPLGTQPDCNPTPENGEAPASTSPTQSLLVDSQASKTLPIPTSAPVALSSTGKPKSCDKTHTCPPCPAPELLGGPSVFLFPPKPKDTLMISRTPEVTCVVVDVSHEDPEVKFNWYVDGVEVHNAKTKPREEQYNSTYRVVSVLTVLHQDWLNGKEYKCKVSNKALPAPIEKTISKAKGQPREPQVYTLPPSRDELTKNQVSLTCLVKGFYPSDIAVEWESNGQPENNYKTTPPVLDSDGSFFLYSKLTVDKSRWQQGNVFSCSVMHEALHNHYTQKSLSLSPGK
Description: as §1, §2

[4] = biological target: T5, human CD30 CRD1 (F19-Q68) Fc fusion protein with human IgG1 Fc fragment at the C terminus (human); assay: SPR, captured Fab, Fc-fused CRD protein as analyte
T5 construct: also called CRD1 construct
Description: as §1, §2

[5] = biological target: T6, human CD30 CRD4 (E150-Q243) Fc fusion protein with human IgG1 Fc fragment at the C terminus (human); assay: SPR, captured Fab, Fc-fused CRD protein as analyte
T6 construct: also called CRD4 construct
T6 sequence (chain, as listed by the source limits assumed): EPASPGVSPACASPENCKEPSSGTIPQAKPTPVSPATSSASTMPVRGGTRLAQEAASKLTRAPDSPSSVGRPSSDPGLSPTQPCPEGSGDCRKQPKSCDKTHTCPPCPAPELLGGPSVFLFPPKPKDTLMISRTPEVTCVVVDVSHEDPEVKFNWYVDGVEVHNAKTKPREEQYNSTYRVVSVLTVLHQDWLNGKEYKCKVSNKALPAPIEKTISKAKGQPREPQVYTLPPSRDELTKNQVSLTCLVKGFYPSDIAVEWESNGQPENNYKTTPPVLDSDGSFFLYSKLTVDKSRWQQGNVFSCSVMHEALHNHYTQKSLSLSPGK
Description: as §1, §2

[6] = biological target: T7, human CD30 CRD3 (E107-S153) Fc fusion protein with human IgG1 Fc fragment at the C terminus (human); assay: SPR, captured Fab, Fc-fused CRD protein as analyte
T7 construct: also called CRD3 construct
Description: as §1, §2

[7] = biological target: T8, recombinant human CD30 extra cellular domain (ECD) protein (human, UniProt P28908 19-379); assay: SPR Biacore T200, His-tagged sdAb/Fab captured, 100.0 nM human CD30 as analyte, single curve
T8 construct: Bought from R&D systems; also called rhCD30; human CD30 ECD
T8 sequence: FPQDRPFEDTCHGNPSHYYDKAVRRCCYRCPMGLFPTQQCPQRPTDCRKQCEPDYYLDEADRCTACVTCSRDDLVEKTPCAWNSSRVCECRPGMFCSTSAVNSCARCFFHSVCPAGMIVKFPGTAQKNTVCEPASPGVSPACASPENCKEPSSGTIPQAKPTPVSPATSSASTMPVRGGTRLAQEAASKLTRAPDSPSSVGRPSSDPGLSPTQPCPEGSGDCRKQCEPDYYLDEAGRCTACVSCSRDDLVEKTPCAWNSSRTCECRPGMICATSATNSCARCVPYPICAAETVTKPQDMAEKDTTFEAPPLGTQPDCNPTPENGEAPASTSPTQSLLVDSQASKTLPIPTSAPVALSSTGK
Description: as §1

[8] = biological target: T5, human CD30 CRD1 (F19-Q68) Fc fusion …; assay: ELISA on the CD30 fragment CRD1, absorbance OD 450 nm; sdAb concentration not given
[9] = biological target: T8, recombinant human CD30 extra cellular …; assay: SPR Biacore T200, scFv captured, 100.0 nM human CD30 as analyte, single curve
Description: as §1

[10] = biological target: T8, recombinant human CD30 extra cellular …; assay: as above; remark: listed apart in the source
Description: as §1

[11] = biological target: T4, human CD30 CRD6 (E282-K379) Fc fusion …; assay: SPR, captured scFv, human IgG1 Fc-fused CRD protein as analyte
Description: as §1, with “2. […]” for “2.”

[12] = biological target: T8, recombinant human CD30 extra cellular …; assay: SPR Biacore T200, scFv captured, 100.0 nM human CD30 as analyte, single curve; beyond off-rate detection limit
Description: as §1

B1: AS57765 human Fab (Fab, V domains shown)
VH: EVQLVESGGGLVQPGGSLRLSCAASGFNIYYSYMHWVRQAPGKGLEWVAYIYPYSGSTSYADSVKGRFTISADTSKNTAYLQMNSLRAEDTAVYYCARPAVHWHGYGGGYYYGLDYWGQGTLVTVSS
VL: DIQMTQSPSSLSASVGDRVTITCRASQSVSSAVAWYQQKPGKAPKLLIYSASSLYSGVPSRFSGSRSGTDFTLTISSLQPEDFATYYCQQAYYSLITFGQGTKVEIK
notes: Human Fab from a synthetic human Fab library, crude protein from E. coli with 6xHistidine tag
binding result (rhesus CD30 ECD): binds
binding result [1]: no binding
binding result [2]: no binding
binding result [3]: no binding
binding result [4]: no binding
binding result [5]: no binding
binding result [6]: no binding
Kd [7]: 11 nM
koff [7]: 0.0011 s⁻¹
kon [7]: 98000 M⁻¹ s⁻¹
rhCD30 Binding (RU) [7]: 37.7 RU

B2: AS53574 sdAb (VHH)
VHH: QVKLVESGGGSVQAGGSLRLSCAASGYIYSSNCMGWFRQAPGKEREWVARIHTGSGSTYYADSVKGRFTISQDNAKNTVYLQMNSLRPEDTAMYDCAAGRVVLGAVVCTNEYWGQGTQVTVSS
notes: Camel sdAb
binding result (rhesus CD30 ECD): binds
binding result [8]: binds
Kd [7]: 3 nM
koff [7]: 0.00021 s⁻¹
kon [7]: 69000 M⁻¹ s⁻¹
rhCD30 Binding (RU) [7]: 569 RU

B3: AS57911 human Fab (Fab, V domains shown)
VH: EVQLVESGGGLVQPGGSLRLSCAASGFNISSSYIHWVRQAPGKGLEWVAYISSYYSYTYYADSVKGRFTISADTSKNTAYLQMNSLRAEDTAVYYCARGYPYGMDYWGQGTLVTVSS
VL: DIQMTQSPSSLSASVGDRVTITCRASQSVSSAVAWYQQKPGKAPKLLIYSASSLYSGVPSRFSGSRSGTDFTLTISSLQPEDFATYYCQQSHALITFGQGTKVEIK
notes: as for B1
binding result (rhesus CD30 ECD): binds
binding result [1]: no binding
binding result [2]: no binding
binding result [3]: no binding
binding result [4]: no binding
binding result [5]: no binding
binding result [6]: no binding
Kd [7]: 170 nM
koff [7]: 0.015 s⁻¹
kon [7]: 92000 M⁻¹ s⁻¹
rhCD30 Binding (RU) [7]: 44.6 RU

B5: 5F11 scFv (scFv)
scFv: DIQMTQSPTSLSASVGDRVTITCRASQGISSWLTWYQQKPEKAPKSLIYAASSLQSGVPSRFSGSGSGTDFTLTISSLQPEDFATYYCQQYDSYPITFGQGTRLEIKGSTSGSGKPGSGEGSTKGQVQLQQWGAGLLKPSETLSLTCAVYGGSFSAYYWSWIRQPPGKGLEWIGDINHGGGTNYNPSLKSRVTISVDTSKNQFSLKLNSVTAADTAVYYCASLTAYWGQGSLVTVSS
notes: Positive control; captured like the other fragments, tag not spelled out for it
Kd [9]: < 0.1 nM
Kd [10]: < 0.0862 nM
kon [10]: 120000 M⁻¹ s⁻¹
binding result [11]: binds
koff [12]: < 1e-05 s⁻¹

Continued, values first:

binding result (rhesus CD30 ECD): binds
binding result [1]: no binding
binding result [2]: no binding
binding result [3]: no binding
binding result [4]: no binding
binding result [5]: no binding
binding result [6]: no binding
Kd [7]: 27 nM
koff [7]: 0.0022 s⁻¹
kon [7]: 82000 M⁻¹ s⁻¹
rhCD30 Binding (RU) [7]: 83.6 RU
B4: AS57659 human Fab (Fab, V domains shown)
VH: EVQLVESGGGLVQPGGSLRLSCAASGFNIYSYYIHWVRQAPGKGLEWVASIYSSYSSTYYADSVKGRFTISADTSKNTAYLQMNSLRAEDTAVYYCARSWFSYPGLDYWGQGTLVTVSS
VL: B3 VL with S91P, H92Y, A93Y
notes: as for B1

binding result (rhesus CD30 ECD): binds
binding result [8]: binds
Kd [7]: 80 nM
koff [7]: 0.0085 s⁻¹
kon [7]: 110000 M⁻¹ s⁻¹
rhCD30 Binding (RU) [7]: 101 RU
B6: AS53445 sdAb (VHH)
VHH: QVQLVESGGGSVQAGGSLRLSCTASGYIFCMGWFRQAPGKAREGIATIYTGGDSTYYDDSVKGRFTISRDNAKNTVYLQMNSLKPEDTAMYYCAAGGQECYLTNWVSYWGQGTQVTVSS
notes: Camel sdAb
